Data taken from US20160024208A1 (Regeneron, published 2016).
Substitutions are numbered along the chain they refer to. Ends that are not written are not given here. * marks the point of attachment. Biotin = O=C1N[C@H]2[C@H](CS[C@H]2CCCCC(=O)*)N1

What was measured:
[1] = molecular target: T1, full-length human Nav1.7 fused at its N-terminus to GFP, expressed in HEK293 cells (human, UniProt Q15858 1-1988); assay: cell-based or functional assay
[2] = molecular target: T2, Native Nav1.7 (3-1) peptide, rat (rat); assay: ELISA on coated peptide, antibody 1 ug/ml, OD450 grade
T2 construct: Synthetic peptide; also called Rat Nav1.7 3-1 native
T2 peptide: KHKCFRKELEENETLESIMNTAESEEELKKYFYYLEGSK
In short: (§1)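 Peptides coated at 4 μg/mL in PBS, or biotinylated peptides captured at 0.4 μg/mL on avidin (2 μg/mL). Antibodies at 0.1 and 1.0 μg/mL, 1 h at room temperature, detected with HRP anti-mouse or anti-human IgG and TMB at OD450. Scores at 1 μg/ml: <0.2 −; 0.2–1 +; 1–2 ++; 2–4 +++.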

[3] = molecular target: T3, N-Term Biotin Nav1.7 (3-1) peptide, mulatta (mulatta (monkey), not fully specified; N-terminal biotin attached via a G4S linker); assay: as above
T3 construct: Synthetic peptide; also called Mulatta Nav1.7 3-1 N-term biotin; monkey
T3 peptide: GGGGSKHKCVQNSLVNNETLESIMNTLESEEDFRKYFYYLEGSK
In short: as §1

[4] = molecular target: T4, N-Term Biotin-Nav1.7 (3-1) peptide, human (human, not fully specified; N-terminal biotin attached via a G4S linker); assay: as above
T4 construct: ELISA peptide
T4 peptide: T3 peptide with V10F, Q11R, V15E
In short: as §1

[5] = molecular target: T5, Native Nav1.7 (3-1) peptide, human (human); assay: Biacore (second token of ELISA/Biacore summary)
T5 construct: Synthetic peptide (Celtek), unbiotinylated; also called Human Nav1.7 3-1 native; Nav1.7 3-1 native peptide
T5 peptide: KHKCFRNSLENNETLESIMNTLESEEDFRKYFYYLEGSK

[6] = molecular target: T3, N-Term Biotin Nav1.7 (3-1) peptide, …; assay: SPR, captured antibody, peptide analyte
In short: (§2)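 Biacore SPR: antibody captured via Fc on anti-Fc surface, Nav1.7 loop peptides injected as analyte at several concentrations. Double-referenced sensorgrams globally fitted to a 1:1 model; KD = kd/ka, t1/2 = ln2/kd.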

[7] = molecular target: T5, Native Nav1.7 (3-1) peptide, human; assay: SPR, captured antibody, peptide analyte
In short: as §2

[8] = molecular target: T3, N-Term Biotin Nav1.7 (3-1) peptide, …; assay: ELISA on coated peptide
Experimental: (§3) Anti-Naᵥ 1.7 antibodies were tested for their ability to bind to the Naᵥ 1.7 peptides. The various peptides were coated overnight onto 96-well Nunc Immunosorp plates at a concentration of 4 μg/mL in PBS, followed by blocking for 1 hour in a suitable blocking agent. For biotinylated peptides, avidin was first coated on Nunc Immunosorp plates at 2 μg/mL in PBS overnight, followed by blocking as described, and the plate was then coated with biotinylated peptides at a concentration of 0.4 μg/mL and incubated for 1 hour at room temperature. Purified anti-Naᵥ 1.7 antibodies were diluted to a final concentration of 0.1 μg/mL and 1.0 μg/mL and added to the wells of the coated microtiter plates followed by incubation for 1 hour at room temperature. Bound antibodies were detected with horseradish peroxidase (HRP) conjugated anti-mouse or anti-human IgG (Jackson Immuno Research Lab, West Grove, Pa.) depending on the antibody species and developed by colorimetric response using tetramethylbenzidine (TMB) substrate (BD Biosciences). Absorbance was read at OD₄₅₀ on a plate reader for 0.1 second.
(§4) Values in Table 11 represent absolute binding ranges (at OD450) to plate-coated peptides for antibodies added at 1 μg/ml as follows: OD450<0.2: −; 0.2<OD450<1: +; 1<OD450<2: ++; 2<OD450<4: +++; NT: Not Tested.

[9] = molecular target: T6, N-term Biotin Nav1.7 (3-3) peptide, mouse (mouse, N-terminal biotin attached via a G4S linker); assay: ELISA on coated peptide
T6 construct: ELISA peptide
T6 peptide: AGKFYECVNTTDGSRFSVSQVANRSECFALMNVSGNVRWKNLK
Experimental: as §3, §4

[10] = molecular target: T7, N-Term Biotin-Nav1.7 (3-3) peptide, human (same sequence of EC3-3 for mulatta) (human (same sequence of EC3-3 for …, not fully specified; N-terminal biotin attached via a G4S linker); assay: ELISA on coated peptide, antibody 1 ug/ml, OD450 grade; Human
T7 construct: ELISA peptide
T7 peptide: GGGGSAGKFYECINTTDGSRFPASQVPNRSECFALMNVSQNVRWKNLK
Experimental: as §3, §4

[11] = molecular target: T8, Native Nav1.7 (3-3) peptide, rat (rat); assay: ELISA on coated peptide, antibody 1 ug/ml, OD450 grade
T8 construct: ELISA peptide
T8 peptide: T6 peptide with S17P, V18T
In short: as §1

[12] = molecular target: T7, N-Term Biotin-Nav1.7 (3-3) peptide, …; assay: ELISA on coated peptide, antibody 1 ug/ml, OD450 grade; Monkey column
Experimental: as §3, §4

[13] = molecular target: T8, Native Nav1.7 (3-3) peptide, rat; assay: ELISA on coated peptide
Experimental: as §3, §4

[14] = molecular target: T9, Native Nav1.7 (Paddle) peptide, human (human); assay: SPR, captured antibody, peptide analyte
T9 construct: Synthetic peptide, unbiotinylated; also called Human Nav1.7 paddle native
T9 peptide: TEFVNLGNVSALRT
In short: as §2

[15] = molecular target: T10, C-term Biotin Nav1.7 (3-1) peptide, human (human, not fully specified; C-terminal biotin attached via a G4S linker); assay: SPR, captured biotin-peptide, antibody analyte
T10 construct: Synthetic peptide; also called Human Nav1.7 3-1 C-term biotin
T10 peptide: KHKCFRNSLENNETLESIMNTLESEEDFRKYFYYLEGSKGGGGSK

[16] = molecular target: T11, N-term Biotin Nav1.7 (Paddle) peptide, human (human, not fully specified); assay: ELISA on coated peptide, antibody 1 ug/ml, OD450 grade
T11 construct: ELISA peptide
T11 peptide: Biotin-GGGGSTEFVNLGNVSALRT
In short: as §1

[17] = molecular target: T12, N-Term Biotin Nav1.7 (Paddle) peptide, mulatta (mulatta (monkey), not fully specified); assay: as above
T12 construct: ELISA peptide
T12 peptide: Biotin-GGGGSTEFVDLGNVSALRT
In short: as §1

[18] = molecular target: T5, Native Nav1.7 (3-1) peptide, human; assay: SPR, captured antibody, peptide analyte; IC = binding data could not be fit
Experimental: The binding affinities of anti-Naᵥ 1.7 antibodies to Naᵥ 1.7 loop peptides were determined by Biacore. For monovalent kinetic experiments, antibodies were captured through the Fc region via a goat anti-Fc-coupled biosensor surface, and the peptides (as analyte) were injected over this captured antibody surface. For bivalent (avidity-driven) kinetic experiments, biotinylated peptides corresponding to the Naᵥ 1.7 3-1, 3-3, or paddle loop sequences were captured on a NeutrAvidin sensor surface, and anti-Naᵥ 1.7 antibodies (as analyte) were injected over this surface. Following the capture step, each analyte was individually injected at several concentrations over its respective capture surface, and changes in bound surface units (RU) were monitored. The dissociation rate is independent of the concentration of analyte used in the experiment, and the dissociation rate constant (kd) was determined from the change in antibody-bound analyte RU over time. The Biacore kinetic data were obtained using a double referencing procedure. […] The KD was calculated as the dissociation rate constant divided by the association rate constant (KD=kd/kₐ). The dissociative half-life (t_{1/2}) was calculated from the dissociation rate constant (t_{1/2}=In2/kd).

[19] = molecular target: T1, full-length human Nav1.7 fused at its …; assay: flow cytometry; % stained hNav1.7-GFP-HEK293 minus parental HEK293
In short: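 Antibody (1-13 nM) incubated 20 min on ice with stably transfected hNav1.7-GFP-HEK293 or parental HEK293 cells in PBS/5% FBS, then 1.7 nM Cy5- or APC-labelled anti-Fc secondary for 20 min on ice. Flow cytometry of live-gated cells; specific binding = % stained transfected minus % stained parental.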

B1: H4H439B (antibody, V domains shown)
VH: QVQLQQWGAGLLKPSETLSLTCAVYGGSFSGHYWSWIRQPPGKGLEWIGEINHRGSTNYNPSLKSRATISVDTSKNQFSLKLSSVTAADTAVYYCAREGSLAARLWFFDLWGRDTLVTVSS
VL: DIQMTQSPSSLSASVGDRGTITCRASQDIRTYLNWYQQKPGKAPKLLIYAASSLQSGVPSRFSGSGSGTDFTLTISSLQPEDFATYYCQQSYGTPYTFGQGTKVEIKR
For B1, the “Current blocking (Average % inhibition), IonWorks Quattro, 223 nM antibody” value (“Current blocking (Average % inhibition)” for short) [1] was 33.6%, the OD450 [2] was 1 to 2 od and the OD450 [3] was 2 to 4 od. The OD450 [4] was 2 to 4 od and the binding result [5] was “binds”.

B2: H4H448B (antibody, V domains shown)
VH: EVQLVQSGGGLVQPGRSLRLSCAASGFTFDDYAMHWVRQAPGKGLEWVSGISWNSGSIGYADSVKGRFTISRDNAKNSLYLQMNSLRAEDTALYYCAKDIEYYDILTGYYSYYIMDVWGQGTTVTVSS
VL: B1 VL with Q3R, D28N, R30N, T31S, Q38L, Y49F, G93S, T94S, Y96F
For B2, the binding result [6] was “no binding”, the Kd [7] was 21.9 nM and the t1/2 [7] was 1.8 min. The OD450 [8] was under 0.2 od and the OD450 [4] was 2 to 4 od.

B3: H4H468B (antibody, V domains shown)
VH: EVQLVQSGGGVVQPGRSLRLSCTASGFTFSVYGIHWVRQAPGKGLEWVAVIWYDGSNKYYTDSVKGRFTISRDNSKNTLYLQMNSLRAEDTALYYCAREGDLSSSSGSGGYHYVVDVWGQGTMVTVSS
VL: DIQMTQSPSSLSASVGDRVTITCRASQDIRNDLGWYQQKPGNAPKLLIYSTSSLQSGVPSRFSGSGSGTDFTLTISSLQPEDFATYYCLQDYNYPLTFGGGTKVEIKR
Work on B3 yielded an OD450 [9] of under 0.2 od, an OD450 [10] of 1 to 2 od and an OD450 [11] of 2 to 4 od. For the same binder, the OD450 [12] was 1 to 2 od.

B4: H4H471B (antibody, V domains shown)
VH: EVQLVESGGGLVKPGGSLRLSCAASGVTFSDYYMTWIRQAPGKGLEWVSYISTDGRTIYYADSVKGRFTISRDNAKNSLYLQMNNLRAEDTAVYYCARGVDSDDYEDFYSYYDMDVWGQGTTVTVSS
VL: DIQMTQSPSSLSASVGDRVTITCRASQGISNYLAWFQQKPGKAPKSLIYAASSLQGGVPSRFSGSGSGTDFTLTISSLQPEDFATYYCQQYNSYPLTFGGGTKVEIKR
For B4, the “Current blocking (Average % inhibition)” value [1] was 57%, the OD450 [13] was under 0.2 od and the OD450 [10] was 2 to 4 od. For the same binder, the OD450 [12] was 2 to 4 od.

B5: H1M683N (antibody, V domains shown)
VH: QVQLVESGGGVVQPGRSLSLSCAASGFTFSNYGMHWVRQAPGKGLEWVAAISYDGNTKYYVDSVKGRFTISRDNSKNTLYLQMNSLRGEDMAVYYCVGARPGYDHYGMDVWGQGTTVTVSS
VL: DIQLTQSPSFLSTSVGDRVTITCWASQGISSYLAWYQQKPGKAPNLLIYTASTLQSGVPSRFSGSGSGTEFTLTISSLQPEDFATYYCQQLNSYPYTFGQGTKLEIK
notes: Loop specificity 2-1 (paddle)
With B5 the Kd [14] was 9.4 nM, the t1/2 [14] was 18 min and the binding result [15] was “no binding”. The OD450 [16] was 1 to 2 od and the OD450 [17] was 0.2 to 1 od.

B6: H1H1003B (antibody, V domains shown)
VH: QVQLVESGGGLVQPGGSLRLSCAASGFTLSSYAMSWVRQAPGKGLEWVSTISGSGIIYYTDSVKGRFTISRDSSKNTLYLQMNSLRVEDTAVYYCAKDRGAAAGAFDYWGQGTLVTVSS
VL: AIQLTQSPDSLAVSLGERATIKCKSSQSVLYSSNNKNYLAWYQQKPGQPPNLLIYWASTRESGVPDRFSGSGSGTDFTLTISSLQAEDVAVYYCQQYFSFGQGTKVDIKR
In the case of B6, the “Current blocking (Average % inhibition)” value [1] is reported as 32.5%, the Kd [15] is reported as 2.64 nM and the t1/2 [15] is reported as 27.8 min. The binding result [18] was “binds”, the OD450 [2] was 2 to 4 od and the OD450 [3] was 2 to 4 od. The OD450 [4] was 2 to 4 od and the “% Binding Nav1.7” value [19] was 1.3%.
